Experimental data from the Immune Epitope Database (IEDB).

How the values were obtained:
HLA-A*01:01 [1] = test: IEDB peptide-MHC binding, purified MHC/direct/fluorescence; filed as Kd, often an IC50 or EC50 that approximates it; ≥ and ≤ were set here for values at or beyond the usual limits of such assays
HLA-A*02:01 [2] = test: as above
HLA-A*03:01 = test: as above
HLA-A*11:01 [3] = test: as above
HLA-A*26:01 [4] = test: as above
HLA-A*26:02 [5] = test: as above; conditions: source organism: Vibrio cholerae V52
HLA-A*31:01 = test: as above
HLA-A*68:02 [6] = test: as above; conditions: source organism: Vibrio cholerae
HLA-B*07:02 [7] = test: as above; conditions: source organism: Vibrio cholerae
HLA-B*08:01 = test: as above; conditions: source organism: Vibrio cholerae V52
HLA-B*08:02 = test: as above
HLA-B*15:01 [8] = test: as above; conditions: source organism: Vibrio cholerae
HLA-B*18:01 [9] = test: as above
HLA-B*27:05 [10] = test: as above
HLA-B*40:01 = test: as above
HLA-B*46:01 = test: as above; conditions: source organism: Vibrio cholerae
HLA-B*48:01 [11] = test: as above; conditions: source organism: Vibrio cholerae
HLA-B*57:01 [12] = test: as above
HLA-B*58:01 = test: as above
HLA-A*26:03 = test: IEDB peptide-MHC binding, purified MHC/competitive/fluorescence; filed as Kd, often an IC50 or EC50 that approximates it; ≥ and ≤ were set here for values at or beyond the usual limits of such assays
HLA-A*30:01 = test: as above
HLA-B*15:17 = test: as above
HLA-A*69:01 = test: IEDB peptide-MHC binding, purified MHC/direct/fluorescence; filed as Kd, often an IC50 or EC50 that approximates it; ≥ and ≤ were set here for values at or beyond the usual limits of such assays; conditions: source organism: Camelpox virus M-96
HLA-A*01:01 [13] = test: IEDB peptide-MHC binding, purified MHC/competitive/fluorescence; filed as Kd, often an IC50 or EC50 that approximates it; ≥ and ≤ were set here for values at or beyond the usual limits of such assays; conditions: source organism: Candida albicans SC5314
HLA-A*02:06 = test: as above
HLA-A*26:01 [14] = test: as above; conditions: source organism: Candida albicans SC5314
HLA-A*26:02 [15] = test: as above; conditions: source organism: Candida albicans SC5314
HLA-A*68:02 [16] = test: as above
HLA-B*07:02 [17] = test: as above
HLA-B*15:01 [18] = test: as above
HLA-B*18:01 [19] = test: as above; conditions: source organism: Candida albicans SC5314
HLA-B*27:05 [20] = test: as above; conditions: source organism: Candida albicans SC5314
HLA-B*35:01 = test: as above; conditions: source organism: Candida albicans SC5314
HLA-B*48:01 [21] = test: as above; conditions: source organism: Candida albicans SC5314
HLA-B*57:01 [22] = test: as above; conditions: source organism: Candida albicans SC5314
HLA-B*15:09 = test: IEDB peptide-MHC binding, purified MHC/direct/fluorescence; filed as Kd, often an IC50 or EC50 that approximates it; ≥ and ≤ were set here for values at or beyond the usual limits of such assays; conditions: source organism: Yersinia pestis CA88-4125
HLA-B*73:01 = test: as above; conditions: source organism: Yersinia pestis CA88-4125
HLA-A*02:01 [23] = test: IEDB peptide-MHC binding, purified MHC/competitive/fluorescence; filed as Kd, often an IC50 or EC50 that approximates it; ≥ and ≤ were set here for values at or beyond the usual limits of such assays; conditions: source organism: Yersinia pestis KIM10+
HLA-A*02:03 = test: as above; conditions: source organism: Yersinia pestis KIM10+
HLA-A*11:01 [24] = test: as above; conditions: source organism: Yersinia pestis KIM10+
HLA-B*15:42 = test: as above; conditions: source organism: Yersinia pestis KIM10+
HLA-B*27:20 = test: as above; conditions: source organism: Yersinia pestis KIM10+
HLA-B*39:01 = test: as above; conditions: source organism: Yersinia pestis KIM10+
HLA-B*45:06 = test: as above; conditions: source organism: Yersinia pestis KIM10+
HLA-B*83:01 = test: as above; conditions: source organism: Yersinia pestis KIM10+
HLA-C*06:02 = test: as above; conditions: source organism: Yersinia pestis KIM10+
HLA-B*40:02 = test: IEDB peptide-MHC binding, cellular MHC/competitive/fluorescence; ≥ and ≤ were set here for values at or beyond the usual limits of such assays; conditions: source organism: Homo sapiens
[25] = source organism: Vibrio cholerae
[26] = source organism: Vibrio cholerae V52
[27] = source organism: Vibrio cholerae 2740-80
[28] = source organism: Camelpox virus M-96
[29] = source organism: Candida albicans SC5314
[30] = source organism: Yersinia pestis
[31] = source organism: Yersinia pestis KIM10+

AADFPGIAR showed a Kd (HLA-A*01:01 [1]; [25]) of no less than 20000 nM, a Kd (HLA-A*02:01 [2]; [25]) of no less than 20000 nM and a Kd (HLA-A*03:01; [25]) of 1000 nM. It also gave a Kd (HLA-A*11:01 [3]; [25]) of 164 nM, a Kd (HLA-A*26:01 [4]; [26]) of no less than 20000 nM and a Kd (HLA-A*26:02 [5]) of no less than 20000 nM. The Kd (HLA-A*31:01; [25]) was 6300 nM, the Kd (HLA-A*68:02 [6]) was no less than 20000 nM and the Kd (HLA-B*07:02 [7]) was no less than 20000 nM. The Kd (HLA-B*08:01) was no less than 20000 nM, the Kd (HLA-B*08:02; [26]) was no less than 20000 nM and the Kd (HLA-B*15:01 [8]) was no less than 20000 nM. The Kd (HLA-B*18:01 [9]; [25]) was no less than 20000 nM, the Kd (HLA-B*27:05 [10]; [25]) was no less than 20000 nM and the Kd (HLA-B*40:01; [25]) was no less than 20000 nM. It also gave a Kd (HLA-B*46:01) of no less than 20000 nM, a Kd (HLA-B*48:01 [11]) of no less than 20000 nM and a Kd (HLA-B*57:01 [12]; [25]) of no less than 20000 nM. For the same sequence, the Kd (HLA-B*58:01; [25]) was no less than 20000 nM, the Kd (HLA-A*26:03; [27]) was no less than 20000 nM and the Kd (HLA-A*30:01; [27]) was 2110 nM. The Kd (HLA-B*15:17; [27]) was no less than 20000 nM.

Work on RVYNNTARY yielded a Kd (HLA-A*02:01 [2]; [28]) of no less than 20000 nM, a Kd (HLA-A*03:01; [28]) of 50.7 nM and a Kd (HLA-A*11:01 [3]; [28]) of 22.5 nM. For the same sequence, the Kd (HLA-A*31:01; [28]) was 432 nM, the Kd (HLA-A*69:01) was no less than 20000 nM and the Kd (HLA-B*08:02; source organism: Variola virus) was no less than 20000 nM. It also gave a Kd (HLA-B*40:01; [28]) of no less than 20000 nM, a Kd (HLA-B*58:01; [28]) of 16 nM and a Kd (HLA-A*01:01 [13]) of no less than 20000 nM. The Kd (HLA-A*02:06; [29]) was no less than 20000 nM, the Kd (HLA-A*26:01 [14]) was 76.8 nM and the Kd (HLA-A*26:02 [15]) was 528 nM. For the same sequence, the Kd (HLA-A*26:03; [29]) was no less than 20000 nM, the Kd (HLA-A*68:02 [16]; [29]) was no less than 20000 nM and the Kd (HLA-B*07:02 [17]; [29]) was no less than 20000 nM. For the same sequence, the Kd (HLA-B*15:01 [18]; [29]) was 187 nM, the Kd (HLA-B*15:17; [29]) was 1.5 nM and the Kd (HLA-B*18:01 [19]) was no less than 20000 nM. The Kd (HLA-B*27:05 [20]) was no less than 20000 nM, the Kd (HLA-B*35:01) was 159 nM and the Kd (HLA-B*48:01 [21]) was no less than 20000 nM. The Kd (HLA-B*57:01 [22]) was 655 nM.

Sequence SRWAISHWL has a Kd (HLA-A*01:01 [1]; [30]) of no less than 20000 nM, a Kd (HLA-A*26:01 [4]; source organism: Yersinia pestis CA88-4125) of no less than 20000 nM and a Kd (HLA-A*31:01; [30]) of no less than 20000 nM. For the same sequence, the Kd (HLA-B*15:09) was no less than 20000 nM, the Kd (HLA-B*18:01 [9]; [30]) was no less than 20000 nM and the Kd (HLA-B*27:05 [10]; [30]) was 20.3 nM. The Kd (HLA-B*57:01 [12]; [30]) was no less than 20000 nM, the Kd (HLA-B*58:01; [30]) was no less than 20000 nM and the Kd (HLA-B*73:01) was 167 nM. It also gave a Kd (HLA-A*02:01 [23]) of 76.2 nM, a Kd (HLA-A*02:03) of 205 nM and a Kd (HLA-A*02:06; [31]) of 8.6 nM. For the same sequence, the Kd (HLA-A*11:01 [24]) was no less than 20000 nM, the Kd (HLA-A*30:01; [31]) was 2690 nM and the Kd (HLA-A*68:02 [16]; [31]) was no less than 20000 nM. The Kd (HLA-B*07:02 [17]; [31]) was no less than 20000 nM, the Kd (HLA-B*15:01 [18]; [31]) was 1840 nM and the Kd (HLA-B*15:42) was no less than 5000 nM. It also gave a Kd (HLA-B*27:20) of 4.8 nM, a Kd (HLA-B*39:01) of 36.3 nM and a Kd (HLA-B*45:06) of no less than 5000 nM. The Kd (HLA-B*83:01) was no less than 5000 nM and the Kd (HLA-C*06:02) was 82.2 nM.

In the case of REFSKEPEL, the IC50 (HLA-B*40:02) is reported as 800 nM.

REASPSRLS showed an IC50 (HLA-B*40:02) of 1900 nM.
